# Results taken from patent US20250361288A1 (Gilead, published 2025).
# Where a chain is given by its changes, count along the chain named. Names and notes keep the numbering of the source.
# T1: human HVEM extracellular domain fused with an Fc fragment at the C-terminus (human, UniProt Q92956 39-202)
# T1 construct: extracellular domain; Bought; also called hHVEM; not shown: Fc fragment at the C-terminus
# T1 sequence (looked up): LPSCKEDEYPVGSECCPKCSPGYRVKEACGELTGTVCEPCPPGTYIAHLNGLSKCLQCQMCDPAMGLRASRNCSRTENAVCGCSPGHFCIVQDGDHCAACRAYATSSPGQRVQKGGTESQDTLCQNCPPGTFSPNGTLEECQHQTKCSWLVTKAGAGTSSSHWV
# T2: mouse HVEM extracellular domain fused with an Fc fragment at the C-terminus (mouse, UniProt Q80WM9 39-206, limits assumed)
# T2 construct: extracellular domain; Bought; also called mHVEM; not shown: Fc fragment at the C-terminus
# T2 sequence (looked up): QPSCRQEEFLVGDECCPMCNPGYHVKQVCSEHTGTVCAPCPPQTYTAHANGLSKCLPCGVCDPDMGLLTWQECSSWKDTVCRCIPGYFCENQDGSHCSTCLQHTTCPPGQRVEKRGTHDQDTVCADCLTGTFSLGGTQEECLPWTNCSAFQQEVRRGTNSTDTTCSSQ
# B1: LIGHT-40 (ligand)
# chain: DGPAGSWEQLIQERRSHEVNPAAHLTGANSSLTGSGGPLLWETQLGLAFLRGLSYHDGALVVTKAGYYYIYSKVQLGGVGCPPGLASTITHGLYKRTPRYPEELELLVSQQSPCGRATSSSRVWWDSSFLGGVVYLEAGEKVVVRVLDERLVRLRDGTRSYFGAFMV
# notes: Printed mutations: L156P, H208Y; Soluble protein carries an N-terminal His tag
# B2: LIGHT-25 (ligand)
# chain: B1 chain with P83L, S87H, Y135H, L147S
# notes: Printed mutations: S160H, L220S; Soluble protein carries an N-terminal His tag
# B3: LIGHT-23 (ligand)
# chain: B1 chain with P83L, S87G, Y135H, L147S
# notes: Printed mutations: S160G, L220S; Soluble protein carries an N-terminal His tag
# B4: LIGHT-24 (ligand)
# chain: B1 chain with P83L, S87G, A117T, Y135H, L147S
# notes: Printed mutations: S160G, A190T, L220S; Soluble protein carries an N-terminal His tag
# B5: LIGHT-17 (ligand)
# chain: B1 chain with Q44N, P83L
# notes: Printed mutations: H208Y, Q117N; Soluble protein carries an N-terminal His tag
# B6: LIGHT-18 (ligand)
# chain: B1 chain with V62I, P83L, L85Q, Y135H, K141E, E149K
# notes: Soluble protein carries an N-terminal His tag
# B7: LIGHT-16 (ligand)
# chain: B1 chain with Q44H, P83L, L85M, Y135H, E140D
# notes: Printed mutations: Q117H, L158M, E213D; Soluble protein carries an N-terminal His tag
# B8: LIGHT-21 (ligand)
# chain: B1 chain with P83L, S87G, T88P, Y135H, L147T
# notes: Printed mutations: S160G, T161P, L220T; Soluble protein carries an N-terminal His tag
# B9: LIGHT-14 (ligand)
# chain: B1 chain with T43S, P83L, L85Q, L93M, Y135H
# notes: as for B6
# B10: LIGHT-33 (ligand)
# chain: B1 chain with P83L, T88P, Y135H, L147S
# notes: Printed mutations: T161P, L220S; Soluble protein carries an N-terminal His tag
# B11: LIGHT-15 (ligand)
# chain: B1 chain with Q44E, P83L, E102K, Y135H, K141E, L154T
# notes: Printed mutations: Q117E, E175K, K214E, L227T; Soluble protein carries an N-terminal His tag
# B12: LIGHT-22 (ligand)
# chain: B1 chain with P83L, S87G, T88S, Y135H, L147S
# notes: Printed mutations: S160G, T161S, L220S; Soluble protein carries an N-terminal His tag
# B13: LIGHT-20 (ligand)
# chain: B1 chain with P83L, S87A, Y135H, L147S, E149D
# notes: Printed mutations: S160A, L220S, E222D; Soluble protein carries an N-terminal His tag
# B14: LIGHT-10 (ligand)
# chain: B1 chain with G77S, P83L, T88P, Y135H, L147S
# notes: Printed mutations: G150S, T161P, L220S; Soluble protein carries an N-terminal His tag
# B15: LIGHT-46 (ligand)
# chain: B1 chain with L53M, P83L, Y135H, K141E
# notes: Printed mutations: L126M, K214E; Soluble protein carries an N-terminal His tag
# B16: LIGHT-30 (ligand)
# chain: B1 chain with P83L, S87R, T88N, Y135H, L147S
# notes: Printed mutations: S160R, T161N, L220S; Soluble protein carries an N-terminal His tag
# B17: LIGHT-19 (ligand)
# chain: B1 chain with T63S, S87G, Y135H, L147M
# notes: as for B6
# B18: LIGHT-9 (ligand)
# chain: B1 chain with G77S, P83L, T88G, Y135H, L147S
# notes: Printed mutations: G150S, T161G, L220S; Soluble protein carries an N-terminal His tag
# B19: LIGHT-41 (ligand)
# chain: B1 chain with G77R, P83L, S87G, Y135H, L147S
# notes: Printed mutations: G150R, S160G, L220S; Soluble protein carries an N-terminal His tag
# B20: LIGHT-11 (ligand)
# chain: B1 chain with G77S, P83L, Y135H, L147S
# notes: Printed mutations: G150S, L220S; Soluble protein carries an N-terminal His tag
# B21: LIGHT-48 (ligand)
# chain: B1 chain with L47P, P83L, Y135H, L147R
# notes: Printed mutations: L120P, L220R; Soluble protein carries an N-terminal His tag
# B22: LIGHT-45 (ligand)
# chain: B1 chain with G77S, P83L, S87P, T88S, Y135H, L147S, R150H
# notes: Printed mutations: G150S, S160P, T161S, L220S, R223H; Soluble protein carries an N-terminal His tag
# B23: LIGHT-32 (ligand)
# chain: B1 chain with P83L, S87R, Y135H, L147S
# notes: Printed mutations: S160R, L220S; Soluble protein carries an N-terminal His tag
# B24: LIGHT-47 (ligand)
# chain: B1 chain with L53M, P83L, A117V
# notes: Printed mutations: L126M, A190V, H208Y; Soluble protein carries an N-terminal His tag
# B25: LIGHT-49 (ligand)
# chain: B1 chain with L32P, Q44R, P83L, Y135H, L147Q
# notes: Printed mutations: L105P, Q117R, L220Q; Soluble protein carries an N-terminal His tag
# B26: LIGHT-50 (ligand)
# chain: B1 chain with N29R, L47Q, P83L, Y135R, K141E
# notes: Printed mutations: N102R, L120Q, H208R, K214E; Soluble protein carries an N-terminal His tag
# B27: LIGHT-44 (ligand)
# chain: B1 chain with G77R, P83L, L85P, Y135H, L147S
# notes: Printed mutations: G150R, L158P, L220S; Soluble protein carries an N-terminal His tag
# B28: LIGHT-43 (ligand)
# chain: B1 chain with G77R, P83L, S87T, Y135H, L147S
# notes: Printed mutations: G150R, S160T, L220S; Soluble protein carries an N-terminal His tag
# B29: LIGHT-51 (ligand)
# chain: B1 chain with A28D, P83L, S87N, Y135H, L147S
# notes: Printed mutations: A101D, S160N, L220S; Soluble protein carries an N-terminal His tag
# Molecular target: T1, human HVEM extracellular domain fused …
# Experiment: ELISA on coated target-Fc
# Protocol: (§1) Nunc MaxiSorp 96-well plates (Thermofisher) were coated with target proteins (1 μg/ml), and then blocked with 2% BSA-PBS buffer for one hour. Serial dilutions of the LIGHT muteins were added with a maximum concentration of 200 ng/ml. The plates were incubated for one hour, washed four times with PBST, and then incubated with mouse anti-His tag antibody (#105327, Sino Biological) for 1 hour. The plates were further incubated with HRP-conjugated goat anti-mouse secondary antibody (#SSA006, Sino Biological) before being washed three times with PBST and treated with TMB substrate (#34029, ThermoFisher). The plates were read at 450 nm on a SpectraMax M5 microplate reader (Molecule Devices). The ELISA results were analyzed using GraphPad Prism 9.0 software and the EC50s (half maximal effective concentration) were summarized in Table 5-1 and Table 5-2.
row,Binder,EC50 [µg/mL]
1,B1,0.0503
2,B2,0.0542
3,B3,0.0588
4,B4,0.0632
5,B5,0.0511
6,B6,0.0447
7,B7,0.0738
8,B8,0.0422
9,B9,0.03
10,B10,0.0256
11,B11,0.0597
12,B12,0.0471
13,B13,0.0496
14,B14,0.0467
15,B15,0.0978
16,B16,0.157
17,B17,0.0681

# Molecular target: T3, mouse LTβR extracellular domain fused with an Fc fragment at the C-terminus (mouse, UniProt P50284 31-223)
# T3 construct: extracellular domain; Bought; also called mLTβR; not shown: Fc fragment at the C-terminus
# T3 sequence (P50284 31-223): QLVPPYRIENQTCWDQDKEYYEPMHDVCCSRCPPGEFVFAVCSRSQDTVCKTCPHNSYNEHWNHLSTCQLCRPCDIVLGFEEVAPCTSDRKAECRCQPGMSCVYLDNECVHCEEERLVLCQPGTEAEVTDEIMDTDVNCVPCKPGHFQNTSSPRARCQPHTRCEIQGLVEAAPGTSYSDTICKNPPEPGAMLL
# Experiment: ELISA on coated target-Fc
# Protocol: as §1
Binder,EC50 [µg/mL],binding result
B18,0.0224,–
B2,0.0323,–
B3,0.0916,–
B4,–,binds
B5,0.0442,–
B19,0.0311,–
B6,0.0413,–
B20,0.0233,–
B7,–,binds
B8,0.134,–
B9,0.0249,–
B11,0.139,–
B12,0.0624,–
B13,–,binds
B21,0.42,–
B14,0.0804,–
B17,0.468,–
B22,0.0264,–
B23,0.0632,–
B24,0.0706,–

# Molecular target: T4, human LTβR extracellular domain fused with an Fc fragment at the C-terminus (human, UniProt P36941 31-227)
# T4 construct: extracellular domain; Bought; also called hLTβR; not shown: Fc fragment at the C-terminus
# T4 sequence (P36941 31-227): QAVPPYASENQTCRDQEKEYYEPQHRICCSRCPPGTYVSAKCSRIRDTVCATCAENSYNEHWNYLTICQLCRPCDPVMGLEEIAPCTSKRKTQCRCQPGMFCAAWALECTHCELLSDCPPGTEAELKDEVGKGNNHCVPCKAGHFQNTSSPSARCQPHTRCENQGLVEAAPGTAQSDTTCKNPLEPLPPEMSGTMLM
# Experiment: ELISA on coated target-Fc
# Protocol: as §1
Binder,EC50 [µg/mL],binding result
B18,0.0282,–
B1,0.0959,–
B2,–,binds
B3,0.0892,–
B4,–,binds
B5,0.0805,–
B19,0.108,–
B6,0.0894,–
B20,0.0395,–
B7,0.16,–
B8,0.0715,–
B10,0.0612,–
B11,0.0748,–
B12,0.0686,–
B13,0.0521,–
B21,0.756,–
B14,0.0441,–
B15,0.0675,–
B22,0.0362,–
B23,0.247,–
B24,0.228,–

# Molecular target: T1, human HVEM extracellular domain fused …
# Experiment: phage ELISA
# Protocol: (§2) Individual clones from the fourth selection round were grown in 96-well deep well blocks in 100 μl of 2YT broth supplemented with 50 μg/ml ampicillin at 37° C. and 220 rpm for 5 hours. Then, 5 μl of helper phages were added to each well and incubated at 37° C. for 30 minutes. After centrifuging at 3,000 rpm for 10 minutes, the cells were resuspended and grown overnight in 150 μl/well of 2YT broth supplemented with 50 μg/ml ampicillin and 50 μg/ml kanamycin.
# (§3) For the ELISA screening, 96-well ELISA plates were coated with target proteins (1 μg/ml in PBS) at 4° C. overnight and then blocked with 2% BSA for 2 hours at room temperature. The supernatant containing phage particles was added to the plates and incubated at room temperature for 1 hour. After incubation, the plates were washed five times with PBST. HRP (horseradish peroxidase) conjugated anti-M13 antibody (Sino Biological, China) was added to the wells and incubated at room temperature for 1 hour. Following another round of washing five times with PBST, 50 μl of TMB (3,3′, 5,5″-tetramethylbenzidine, #34029, ThemoFisher) was added to each well. After 5 minutes, the reaction was stopped by adding 50 μl stop solution (#C1058, Solarbio, China). The absorbance at 450 nm (OD450) was measured using a plate reader (SpectraMax M5, Molecule Devices). Wells coated with BSA were used as negative controls. Phage clones with an ELISA score ratio (target/BSA)>3 were considered positive clones.
row,Binder,binding result
1,B18,no binding
2,B25,binds
3,B26,binds
4,B27,binds
5,B20,no binding
6,B21,binds
7,B28,binds
8,B23,binds
9,B24,binds
10,B29,binds

# Molecular target: T3, mouse LTβR extracellular domain fused …
# Experiment: phage ELISA
# Protocol: as §2, §3
row,Binder,binding result
1,B1,binds
2,B25,binds
3,B26,binds
4,B27,binds
5,B10,binds
6,B15,binds
7,B28,binds
8,B29,binds

# Molecular target: T4, human LTβR extracellular domain fused …
# Experiment: phage ELISA
# Protocol: as §2, §3
row,Binder,binding result
1,B25,binds
2,B26,binds
3,B27,binds
4,B28,binds
5,B29,binds

# Molecular target: T2, mouse HVEM extracellular domain fused …
# Experiment: phage ELISA
# Protocol: as §2, §3
row,Binder,binding result
1,B18,binds
2,B1,binds
3,B2,binds
4,B25,binds
5,B26,binds
6,B3,binds
7,B4,binds
8,B5,binds
9,B19,binds
10,B27,binds
11,B20,binds
12,B7,binds
13,B8,binds
14,B10,binds
15,B11,binds
16,B12,binds
17,B13,binds
18,B21,binds
19,B14,binds
20,B15,binds
21,B16,binds
22,B28,binds
23,B22,binds
24,B23,binds
25,B24,binds
26,B29,binds
